Test results published in PMC10516927, “DNA-bridging by an archaeal histone variant via a unique tetramerisation interface” (Communications Biology, 2023).

Columns and labels:
MJ1647 [1] = molecular target: T1, MJ1647 (Methanocaldococcus jannaschii, UniProt Q59041 1-96); assay: DNA-bridging pull-down; details: EMSA: 50 nM DNA, 10 mM Tris/HCl pH 8.0, 222 mM NaCl, 0.4 mM TCEP, 0.1 mg/ml BSA, 5% glycerol, 37 C 15 min; agarose EMSA: same with 110 mM NaCl, no glycerol …
T1 sequence: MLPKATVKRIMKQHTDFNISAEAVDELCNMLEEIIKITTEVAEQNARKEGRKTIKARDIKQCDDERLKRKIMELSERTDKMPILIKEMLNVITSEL

[2] = molecular target: MJ1647ΔTM, deletion variant of MJ1647 lacking the C-terminal 27 amino acids (Methanocaldococcus jannaschii) (UniProt Q59041); assay: SEC-MALS; 100 µl protein at 2.0 mg/ml on a Superose12 10/300 column in buffer N(250), 0.5 ml/min
[3] = molecular target: MJ1647ΔTM, deletion variant of MJ1647 lacking the C-terminal 27 amino acids (Methanocaldococcus jannaschii) (UniProt Q59041); assay: native MS; nano-electrospray, protein exchanged into 0.5 M ammonium acetate, Synapt mass spectrometer
[4] = molecular target: T2, histone variant MJ1647 from Methanocaldococcus jannaschii (Methanocaldococcus jannaschii (strain …, UniProt Q59041)); assay: co-expression with SEC and BS3 cross-linking/SDS-PAGE
T2 chain: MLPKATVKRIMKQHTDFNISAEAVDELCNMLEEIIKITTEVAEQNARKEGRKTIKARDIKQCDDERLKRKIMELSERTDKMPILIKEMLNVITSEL

[5] = molecular target: the molecule itself; assay: SEC-MALS; 100 µl protein at 2.0 mg/ml on a Superose12 10/300 column in buffer N(250), 0.5 ml/min
MJ1647ΔTM = molecular target: T3, MJ1647ΔTM (Methanocaldococcus jannaschii, UniProt Q59041 1-69, del70-96); assay: EMSA; pattern identical to A3; EMSA: 50 nM DNA, 10 mM Tris/HCl pH 8.0, 222 mM NaCl, 0.4 mM TCEP, 0.1 mg/ml BSA, 5% glycerol, 37 C 15 min; agarose EMSA: same with 110 mM NaCl, no glycerol; TPM and bridging buffers not in the material; details: protein: recombinant, tags: untagged, chain copies: 2, label: Cy3 (Methods), blunt
T3 sequence: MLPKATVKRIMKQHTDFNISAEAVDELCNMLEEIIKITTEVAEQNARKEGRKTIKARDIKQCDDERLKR

A3 [6] = molecular target: T4, A3 (Methanocaldococcus jannaschii, UniProt Q58655 1-67); assay: EMSA; two species (one or two dimers); EMSA: 50 nM DNA, 10 mM Tris/HCl pH 8.0, 222 mM NaCl, 0.4 mM TCEP, 0.1 mg/ml BSA, 5% glycerol, 37 C 15 min; agarose EMSA: same with 110 mM NaCl, no glycerol; TPM and bridging buffers not in the material; details: protein: recombinant; tags: untagged; chain copies: 2; label: Cy3 (Methods); 5'-32P for K80E and E95K; blunt
T4 sequence: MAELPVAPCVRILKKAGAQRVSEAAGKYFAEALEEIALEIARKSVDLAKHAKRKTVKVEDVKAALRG

MJ1647 [7] = molecular target: T1, MJ1647; assay: EMSA; single species; EMSA: 50 nM DNA, 10 mM Tris/HCl pH 8.0, 222 mM NaCl, 0.4 mM TCEP, 0.1 mg/ml BSA, 5% glycerol, 37 C 15 min; agarose EMSA: same with 110 mM NaCl, no glycerol; TPM and bridging buffers not in the material; details: protein: recombinant; tags: untagged; chain copies: 4; label: Cy3 (Methods); 5'-32P for K80E and E95K; blunt
MJ1647 K80E = molecular target: T5, MJ1647 K80E (Methanocaldococcus jannaschii, UniProt Q59041 1-96, K80E); assay: EMSA; faster (dimer) complex at low, tetramer complex at higher protein; EMSA: 50 nM DNA, 10 mM Tris/HCl pH 8.0, 222 mM NaCl, 0.4 mM TCEP, 0.1 mg/ml BSA, 5% glycerol, 37 C 15 min; agarose EMSA: same with 110 mM NaCl, no glycerol; TPM and bridging buffers not in the material; details: protein: recombinant; tags: untagged; chain copies: 2; label: Cy3 (Methods); 5'-32P for K80E and E95K; blunt
T5 sequence: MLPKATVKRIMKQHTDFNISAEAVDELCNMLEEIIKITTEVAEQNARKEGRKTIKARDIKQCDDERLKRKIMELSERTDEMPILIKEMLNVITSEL

MJ1647 E95K = molecular target: T6, MJ1647 E95K (Methanocaldococcus jannaschii, UniProt Q59041 1-96, E95K); assay: as above; details: protein: recombinant; tags: untagged; chain copies: 2; label: Cy3 (Methods); 5'-32P for K80E and E95K; blunt
T6 sequence: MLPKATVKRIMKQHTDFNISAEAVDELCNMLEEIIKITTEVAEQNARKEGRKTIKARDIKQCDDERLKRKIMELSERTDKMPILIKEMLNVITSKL

A3 [8] = molecular target: T4, A3; assay: EMSA; single shifted species; EMSA: 50 nM DNA, 10 mM Tris/HCl pH 8.0, 222 mM NaCl, 0.4 mM TCEP, 0.1 mg/ml BSA, 5% glycerol, 37 C 15 min; agarose EMSA: same with 110 mM NaCl, no glycerol; TPM and bridging buffers not in the material; details: protein: recombinant; tags: untagged; chain copies: 2; label: Cy3 (Methods); blunt
[9] = molecular target: the molecule itself; assay: cross-linking; BS3 (5 mM), 20 µM monomers, modified N(200) buffer with 10 mM HEPES/NaOH pH 7.5, 25 °C 40 min, SDS-PAGE with SYPRO-Orange; A3 alone, MJ1647 alone and co-expressed A3 and MJ1647; no DNA
[10] = molecular target: the molecule itself; assay: crystal structure; X-ray, 1.9 Å; crystals from 0.1 M NaOAc pH 4.6, 10% PEG3350, 5% tacsimate pH 4.6; four chains in the asymmetric unit as two dimers
[11] = molecular target: the molecule itself; assay: SEC; elution profiles of purified wild-type MJ1647 and its charge-reversal and cysteine variants compared

## 685 bp TPM/bridging substrate
MJ1647 [1]
  K half: 2500 nM

## MJ1647ΔTM, deletion variant of MJ1647 lacking the C-terminal 27 amino acids (from UniProt Q59041 1-96) (domain or fragment)
[2]
  stoichiometry N: 2
[3]
  stoichiometry N: 2

B1: histone A3 (MJ1258) from Methanocaldococcus jannaschii (natural protein, UniProt Q58655 1-67, looked up)
chain: MAELPVAPCVRILKKAGAQRVSEAAGKYFAEALEEIALEIARKSVDLAKHAKRKTVKVEDVKAALRG
notes: canonical histone A3 of Methanocaldococcus jannaschii, gene MJ1258, cloned into pET-21a(+) via NdeI and XhoI for expression of untagged protein; expected dimer mass 14.5 kDa; Untagged; also called canonical histone A3; source: E. coli Rosetta 2(DE3), purified (heparin, SP Sepharose, SEC); also co-expressed with MJ1647 from pETDuet-1 in E. coli and purified in the same way
[4]
  binding result: no binding
[5]
  stoichiometry N: 2

B2: 60 bp EMSA template (dsDNA)
DNA 1: CATACTGGTTCCAAAGCATGAAATAGTTCCAAAAGAAGAAGTTGAGGAGTTTTGAAGAGA
DNA 2: TCTCTTCAAAACTCCTCAACTTCTTCTTTTGGAACTATTTCATGCTTTGGAACCAGTATG
MJ1647ΔTM; 5'-32P for K80E and E95K
  binding result: binds
A3 [6]
  binding result: binds
MJ1647 [7]
  binding result: binds
MJ1647 K80E
  binding result: binds
MJ1647 E95K
  binding result: binds

B3: 30 bp EMSA template (dsDNA)
DNA 1: CATACTGGTTCCAAAGCATGAAATAGTTCCAA
DNA 2: TTGGAACTATTTCATGCTTTGGAACCAGTATG
MJ1647ΔTM
  binding result: binds
A3 [8]
  binding result: binds

B4: histone variant MJ1647 from Methanocaldococcus jannaschii (natural protein)
chain: MLPKATVKRIMKQHTDFNISAEAVDELCNMLEEIIKITTEVAEQNARKEGRKTIKARDIKQCDDERLKRKIMELSERTDKMPILIKEMLNVITSEL
notes: histone paralogue MJ1647 of Methanocaldococcus jannaschii, histone fold followed by a C-terminal extension of 27 amino acids (tetramerisation module, TM); gene cloned into pET-21a(+) via NdeI and XhoI for expression of untagged protein; expected tetramer mass 44.8 kDa; Untagged; Tetramer in solution (SEC-MALS, native MS); crystallised as dimers at pH 4.6; also called wild-type MJ1647; WT MJ1647; …
[9]
  stoichiometry N: 4
[10]
  stoichiometry N: 2

B5: MJ1647 E95K charge-reversal mutant (natural protein, Methanocaldococcus jannaschii)
chain: MLPKATVKRIMKQHTDFNISAEAVDELCNMLEEIIKITTEVAEQNARKEGRKTIKARDIKQCDDERLKRKIMELSERTDKMPILIKEMLNVITSKL
notes: MJ1647 of Methanocaldococcus jannaschii with the substitution E95K; source: E. coli, purified (as the wild type; plasmid by site-directed mutagenesis or NEBuilder HiFi DNA assembly)
[11]
  binding result: binds

B6: MJ1647 C28S/C62S/K80C (natural protein, Methanocaldococcus jannaschii)
chain: MLPKATVKRIMKQHTDFNISAEAVDELSNMLEEIIKITTEVAEQNARKEGRKTIKARDIKQSDDERLKRKIMELSERTDCMPILIKEMLNVITSEL
notes: MJ1647 of Methanocaldococcus jannaschii with C28S, C62S and K80C; also called single-cysteine substitution K80C; source: E. coli, purified (as the wild type)
[11]
  stoichiometry N: 4

B7: MJ1647 C28S/C62S/K80C/E95C (double-cysteine variant) (natural protein, Methanocaldococcus jannaschii)
chain: MLPKATVKRIMKQHTDFNISAEAVDELSNMLEEIIKITTEVAEQNARKEGRKTIKARDIKQSDDERLKRKIMELSERTDCMPILIKEMLNVITSCL
modifications: disulfide bond between C80 and C95 of two chains (reduced only at 25 mM TCEP)
notes: MJ1647 of Methanocaldococcus jannaschii with C28S, C62S, K80C and E95C; also called double-cysteine substitution; source: E. coli, purified (as the wild type)
[11]
  stoichiometry N: 4

B8: MJ1647 C28S/C62S (cysteine-free background) (natural protein, Methanocaldococcus jannaschii)
chain: MLPKATVKRIMKQHTDFNISAEAVDELSNMLEEIIKITTEVAEQNARKEGRKTIKARDIKQSDDERLKRKIMELSERTDKMPILIKEMLNVITSEL
notes: MJ1647 of Methanocaldococcus jannaschii with its two cysteines replaced by serine (C28S, C62S); also called C28S/C62S variant; source: E. coli, purified (as the wild type)
[11]
  stoichiometry N: 4

B9: MJ1647 K80E charge-reversal mutant (natural protein, Methanocaldococcus jannaschii)
chain: MLPKATVKRIMKQHTDFNISAEAVDELCNMLEEIIKITTEVAEQNARKEGRKTIKARDIKQCDDERLKRKIMELSERTDEMPILIKEMLNVITSEL
notes: MJ1647 of Methanocaldococcus jannaschii with the substitution K80E; source: E. coli, purified (as the wild type; plasmid by site-directed mutagenesis or NEBuilder HiFi DNA assembly)
[11]
  binding result: binds

B10: MJ1647 C28S/C62S/E95C (natural protein, Methanocaldococcus jannaschii)
chain: MLPKATVKRIMKQHTDFNISAEAVDELSNMLEEIIKITTEVAEQNARKEGRKTIKARDIKQSDDERLKRKIMELSERTDKMPILIKEMLNVITSCL
notes: MJ1647 of Methanocaldococcus jannaschii with C28S, C62S and E95C; also called single-cysteine substitution E95C; source: E. coli, purified (as the wild type)
[11]
  stoichiometry N: 4

B11: MJ1647 K80E/E95K double charge-reversal mutant (natural protein, Methanocaldococcus jannaschii)
chain: MLPKATVKRIMKQHTDFNISAEAVDELCNMLEEIIKITTEVAEQNARKEGRKTIKARDIKQCDDERLKRKIMELSERTDEMPILIKEMLNVITSKL
notes: MJ1647 of Methanocaldococcus jannaschii with the substitutions K80E and E95K; source: E. coli, purified (as the wild type; plasmid by site-directed mutagenesis or NEBuilder HiFi DNA assembly)
[11]
  stoichiometry N: 4
